Results published in patent publication US20230404098A1.

Biological target: Bovine kappa casein purified from cow's milk (Sigma Aldrich) (bovine (cow)) (UniProt P02668)
Assay: cell-based or functional assay

Sequence of UniProt P02668 (P02668 22-190): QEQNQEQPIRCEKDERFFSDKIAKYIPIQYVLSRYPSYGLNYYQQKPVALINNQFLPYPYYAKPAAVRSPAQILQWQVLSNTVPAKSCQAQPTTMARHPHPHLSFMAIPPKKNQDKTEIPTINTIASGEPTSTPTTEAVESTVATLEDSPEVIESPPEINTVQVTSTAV

Average A450 (turbidity of the micellar colloid): 0.13 A450
Substance: Recombinantly-produced N-terminally 6xhistidine-tagged bovine (cow) alpha-s1-casein (lacking PTMs)
